# Experimental data as given in patent US20100068742.
# Entries after “also recorded” stand apart in the source; their conditions may differ.
# Tests used:
# [1] = tested on: T1, LRRKtide peptide (RLGRDKYKTLRQIRQ)
# T1 sequence: RLGRDKYKTLRQIRQ
# [2] = tested on: LRRKtide with +1Leu mutated to Ala
# [3] = tested on: LRRKtide with +2Arg mutated to Ala
# [4] = tested on: LRRKtide with +5Arg mutated to Ala
# [5] = tested on: LRRKtide with -2Tyr mutated to Ala
# [6] = tested on: LRRKtide with -2Tyr mutated to Arg
# [7] = tested on: LRRKtide with -2Tyr mutated to Glu
# [8] = tested on: LRRKtide with -4 (Asp) mutated to Ala
# [9] = tested on: LRRKtide with -5Arg mutated to Ala
# [10] = tested on: LRRKtide with the +2 residue mutated to Glu
# [11] = tested on: LRRKtide with the +2 residue mutated to Pro
# [12] = tested on: LRRKtide with the +5 residue mutated to Glu
# [13] = tested on: LRRKtide with the +5 residue mutated to Pro
# [14] = tested on: T2, Nictide (RLGWWRFYTLRRARQGNTKQR)
# T2 sequence: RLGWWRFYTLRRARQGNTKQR
# [15] = tested on: Nictide peptides with combined -5, -4 and -1 mutations
# [16] = tested on: Nictide with +1Leu mutated to Pro
# [17] = tested on: Nictide with +2 Arg mutated to Ala
# [18] = tested on: Nictide with -1 Tyr mutated to Ala
# [19] = tested on: Nictide with -4Trp mutated to Ala
# [20] = tested on: Nictide with -5Trp mutated to Ala
# [21] = tested on: Nictide with Thr introduced at the +2 position
# [22] = tested on: Nictide with Thr introduced at the -2 position
# [23] = tested on: Nictide with Thr residues at both the -2 and +2 positions
# [24] = tested on: Nictide with the phosphorylated Thr mutated to Ser
substance,measurement,setting,value
GST-LRRK2 1326-2527 [G2019S],phosphorylation of GST fusion proteins (32P autoradiography),GST-Nictide,phosphorylated to a significantly greater extent by LRRK2 than the other GST-fusion proteins
same,Km of peptide phosphorylation,[1],Km of 200 µM
same,Vmax of peptide phosphorylation,[1],Vmax of 14 U/mg
same,fold decrease of Vmax against wild type LRRKtide,[2],+1Leu (2-fold)
same,peptide phosphorylation,[2],had no effect on LRRK2 phosphorylation
same,fold decrease of Vmax against wild type LRRKtide,[3],+2 Arg (4 to 28-fold)
same,fold increase of Km against wild type LRRKtide,[3],+2Arg (4.5-fold)
same,fold increase of Km against wild type LRRKtide,[4],+5Arg (4-fold)
same,fold decrease of Vmax against wild type LRRKtide,[5],-2 Tyr (2 to 10-fold)
same,fold increase of Km against wild type LRRKtide,[5],-2Tyr (2.4-fold)
same,Km against wild type LRRKtide,[6],slightly decreased Km
same,fold decrease of Vmax against wild type LRRKtide,[6],-2 Tyr (2 to 10-fold)
same,fold decrease of Vmax against wild type LRRKtide,[7],-2 Tyr (2 to 10-fold)
same,fold increase of Km against wild type LRRKtide,[7],increased Km 4.4-fold
same,fold decrease of Km against wild type LRRKtide,[8],decreasing Km 2.3-fold
same,fold increase of Km against wild type LRRKtide,[9],-5Arg (2.5 fold)
same,Km against wild type LRRKtide,[10],increased Km similarly to the Ala mutation
same,fold decrease of Vmax against wild type LRRKtide,[10],+2 Arg (4 to 28-fold)
same,Km against wild type LRRKtide,[11],increased Km similarly to the Ala mutation
same,fold decrease of Vmax against wild type LRRKtide,[11],+2 Arg (4 to 28-fold)
same,Km against wild type LRRKtide,[12],increased Km similarly to the Ala mutation
same,fold decrease of Vmax against wild type LRRKtide,[12],+5 Arg (mutation to Glu 4-fold)
same,Km against wild type LRRKtide,[13],increased Km similarly to the Ala mutation
same,Km of peptide phosphorylation,[14],Calculated Km values are 6micromolar for Nictide; also recorded: Km of 10 µM
same,Vmax of peptide phosphorylation,[14],Vmax of 26 U/mg
same,fold decrease of Km against LRRKtide,[14],20-fold lower than LRRKtide
same,fold increase of Vmax against LRRKtide,[14],1.7-fold higher than LRRKtide
same,fold increase of Km against Nictide,[15],the Km values were substantially increased 5 to 20-fold compared to Nictide
same,Km against Nictide,[16],without affecting Km
same,fold decrease of Vmax against Nictide,[16],only decreased Vmax of LRRK2 phosphorylation under 2-fold
same,fold decrease of Vmax against Nictide,[17],decreased the Vmax value of phosphorylation 2 to 5-fold
same,fold increase of Km against Nictide,[18],increased Km values 2 to 3-fold
same,fold increase of Vmax against Nictide,[18],enhanced Vmax of LRRK2 phosphorylation ~2-fold
same,fold decrease of Vmax against Nictide,[19],decreased the Vmax value of phosphorylation 2 to 5-fold
same,fold increase of Km against Nictide,[19],increased Km values 2 to 3-fold
same,fold increase of Vmax against Nictide,[19],enhanced Vmax of LRRK2 phosphorylation ~2-fold
same,fold increase of Km against Nictide,[20],increasing the Km value 3-fold
same,fold increase of Vmax against Nictide,[20],enhanced Vmax of LRRK2 phosphorylation ~2-fold
same,Km and Vmax against Nictide,[21],moderately increased the Km and reduced the Vmax value
same,Km and Vmax against Nictide,[22],moderately increased the Km and reduced the Vmax value
same,fold increase of Km against Nictide,[23],increased Km value of over 10-fold
same,peptide phosphorylation,[24],almost abolished phosphorylation of the peptide by LRRK2
